Laboratory results as given in patent publication US20220306690A1 (CURATORS OF THE UNIVERSITY OF MISSOURI, published 2022).

Experiments:
[1] = target: T1, HIV-1 capsid protein (CA) hexamer (HIV-1, UniProt O12157 131-361, fluorescently labeled with Alexa Fluor 647 analog NT647 (site of labeling not stated)); experiment: MicroScale Thermophoresis; Kd of Pep-2-cyclic (32 nM) against Kd of small molecule PF74 ([…] nM) on CA-hexamers
T1 construct: also called CA-hexamers

[2] = target: T1, HIV-1 capsid protein (CA) hexamer; experiment: MicroScale Thermophoresis; 200 nM NT647-labeled CA-hexamers, Pep-2-cyclic titrated 1 nM to 2000 nM; fit to quadratic equation
[3] = target: T1, HIV-1 capsid protein (CA) hexamer; experiment: MicroScale Thermophoresis (MST), 200 nM NT647-labelled CA-hexamers, Pep-2-cyclic titrated 1 nM to 2000 nM [B panel A]

B1: Pep-2-cyclic: Cyc(SGVFTFGPVNFPG) (peptide)
peptide: SGVFTFGPVNFPG
modifications: head-to-tail cyclic: cyclized by coupling the C-terminal carboxylic acid and the N-terminal amino group
B1 was tested, and the “fold greater affinity than PF74” value [1] was roughly 7 fold, the Kd [2] was 0.032 µM and the “EC50 (read off the curve)” value [3] was roughly 0.07 µM.
